For test [1], the target named is T1, cynomolgus monkey C-MET on stably transfected CHO-K1 cells (cynomolgus monkey, UniProt A0M8R7 25-1381 (Papio anubis entry)).
T1 construct: also called cycMET; cyno C-MET+ CHO-K1 cells
Kind of test: flow cytometry, C-MET CHO-K1 cells. As for the experimental part: (§1) Purified IgGs were tested in FACs for binding to human and cyno C-MET expressed on CHO-K1 stable cell lines and CHO-K1 wild-type cells. The IgG samples were titrated in three-fold serial dilutions starting at 500 nM to 0.08 nM. Binding of IgGs was detected with a mouse anti-human IgG conjugated to FITC. Results were analyzed by examining the Mean Fluorescence Intensity (MFI) of 10000 cells per sample in the BL-1 channel detector of a flow cytometer (Attune™ NxT Acoustic Focusing Cytometer, Invitrogen/ThermoFisher Scientific).
(§2) Antibodies to C-MET were analysed for concentration-dependent binding at the cell surface via flow cytometry. CHO-K1 cells were stably transfected with either human or cyno C-MET full-length cDNAs. Anti-C-MET IgGs and an isotype control IgG4(S228P) were then all tested in IgG4(S228P) format, over a concentration range of 500-0.08 nM for binding to human (FIG. 5A) and cyno (FIG. 5B) CHO-K1 cells.

Test [2] addresses T2, human C-MET on stably transfected CHO-K1 cells (human, UniProt P08581 25-1390).
T2 construct: also called hucMET; human C-MET+ CHO-K1 cells
The test can be described thus: flow cytometry, C-MET CHO-K1 cells. As for the experimental part: as §1, §2

In test [3] the target is T3, human C-MET His tagged, monomeric (human, UniProt P08581 25-932).
T3 construct: also called monomeric human C-MET; biotinylated human C-MET-His
T3 sequence (P08581 25-932): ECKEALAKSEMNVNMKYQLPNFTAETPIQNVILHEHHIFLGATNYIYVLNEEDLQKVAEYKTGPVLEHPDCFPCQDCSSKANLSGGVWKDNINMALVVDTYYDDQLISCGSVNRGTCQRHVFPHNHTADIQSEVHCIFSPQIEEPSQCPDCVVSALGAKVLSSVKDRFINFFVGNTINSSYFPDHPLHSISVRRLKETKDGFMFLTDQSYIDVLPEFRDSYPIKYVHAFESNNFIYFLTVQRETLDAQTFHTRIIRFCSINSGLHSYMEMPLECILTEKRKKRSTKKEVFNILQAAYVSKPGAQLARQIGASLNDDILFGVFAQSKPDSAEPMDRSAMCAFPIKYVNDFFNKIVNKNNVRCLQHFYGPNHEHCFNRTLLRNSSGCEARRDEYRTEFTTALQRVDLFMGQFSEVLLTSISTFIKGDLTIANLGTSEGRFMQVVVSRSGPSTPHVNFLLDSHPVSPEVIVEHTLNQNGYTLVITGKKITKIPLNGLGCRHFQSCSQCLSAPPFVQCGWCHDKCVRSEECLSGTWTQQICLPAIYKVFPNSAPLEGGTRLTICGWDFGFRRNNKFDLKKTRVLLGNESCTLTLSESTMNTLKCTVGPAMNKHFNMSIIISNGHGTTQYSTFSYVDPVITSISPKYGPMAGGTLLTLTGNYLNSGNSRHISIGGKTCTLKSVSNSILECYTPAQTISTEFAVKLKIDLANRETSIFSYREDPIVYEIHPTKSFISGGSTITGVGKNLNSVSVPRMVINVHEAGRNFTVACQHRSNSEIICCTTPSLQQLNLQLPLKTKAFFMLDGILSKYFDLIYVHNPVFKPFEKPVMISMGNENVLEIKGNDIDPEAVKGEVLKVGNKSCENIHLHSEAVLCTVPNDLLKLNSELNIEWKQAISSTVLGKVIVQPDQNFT
The test can be described thus: SPR Biacore, IgG captured, monomeric C-MET-His analyte. How it is done: (§3) Affinity (KD) of purified IgGs was determined via SPR with antigen in-solution on a Biacore® 3000 (GE). A mouse anti-human antibody (CH1 specific) was immobilized on a CM5 Sensor Chip to a level of 2000 RU in acetate buffer at pH 4.5 using amine coupling following the Wizard instructions for two channels. One channel was used for background signal correction. The standard running buffer HBS-EP pH 7.4 was used. Regeneration was performed with a single injection of 10 μl of 10 mM Glycine at pH 1.5 at 20 μl/minute. IgG samples were injected for 2 minutes at 50 nM at 30 μl/min followed by and off-rate of 60 seconds. The monomeric antigen (human C-MET His tagged or cynomolgus monkey C-MET His tag) was injected in two fold serial dilutions from 100 nM down to 6 nM, for 2 minutes at 30 μl/min followed by an off-rate of 300 seconds. The obtained sensorgrams were analysed using the Biacore® 3000 evaluation (BIAevaluation) software. The KD was calculated by simultaneous fitting of the association and dissociation phases to a 1:1 Langmuir binding model.

Test [4] deals with T4, cynomolgus monkey C-MET His tag, monomeric (cynomolgus monkey, UniProt A0M8R7 25-932 (Papio anubis entry)).
T4 construct: also called monomeric cyno C-MET; cyCMET
T4 sequence (A0M8R7 25-932 S170N/I621T): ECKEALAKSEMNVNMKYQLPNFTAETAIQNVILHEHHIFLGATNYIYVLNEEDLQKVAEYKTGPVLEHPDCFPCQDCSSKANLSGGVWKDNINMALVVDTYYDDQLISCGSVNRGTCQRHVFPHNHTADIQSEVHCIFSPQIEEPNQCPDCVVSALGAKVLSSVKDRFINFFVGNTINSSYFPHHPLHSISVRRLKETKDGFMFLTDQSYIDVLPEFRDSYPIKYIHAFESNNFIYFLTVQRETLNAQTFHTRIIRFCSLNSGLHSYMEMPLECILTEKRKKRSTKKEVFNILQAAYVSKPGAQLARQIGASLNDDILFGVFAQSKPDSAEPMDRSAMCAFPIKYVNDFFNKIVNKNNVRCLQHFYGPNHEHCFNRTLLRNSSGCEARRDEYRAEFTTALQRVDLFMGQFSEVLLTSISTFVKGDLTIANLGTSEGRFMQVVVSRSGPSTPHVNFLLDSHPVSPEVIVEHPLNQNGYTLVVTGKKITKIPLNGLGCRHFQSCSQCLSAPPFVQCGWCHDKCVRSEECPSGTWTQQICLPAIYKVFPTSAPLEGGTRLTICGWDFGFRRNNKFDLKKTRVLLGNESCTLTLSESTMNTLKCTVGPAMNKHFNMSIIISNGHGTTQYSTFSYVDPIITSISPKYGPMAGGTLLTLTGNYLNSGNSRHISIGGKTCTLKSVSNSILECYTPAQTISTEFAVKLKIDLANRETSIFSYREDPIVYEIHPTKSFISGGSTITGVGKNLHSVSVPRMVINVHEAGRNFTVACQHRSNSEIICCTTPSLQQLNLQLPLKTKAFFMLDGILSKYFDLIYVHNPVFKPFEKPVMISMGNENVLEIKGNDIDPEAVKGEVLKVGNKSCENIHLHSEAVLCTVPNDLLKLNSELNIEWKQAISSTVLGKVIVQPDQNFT
The test is described as above. As for the experimental part: as §3

The target in test [5] is T1, cynomolgus monkey C-MET on stably …. Kind of test: flow cytometry, C-MET CHO-K1 cells. As for the experimental part: as §1
This is another data set of the same source.

The target of test [6] is T2, human C-MET on stably transfected …. The test can be described thus: flow cytometry, C-MET CHO-K1 cells. How it is done: as §1
This is another data set of the same source.

Some results are limits rather than exact numbers.

T2 sequence (P08581 25-1390 limits assumed): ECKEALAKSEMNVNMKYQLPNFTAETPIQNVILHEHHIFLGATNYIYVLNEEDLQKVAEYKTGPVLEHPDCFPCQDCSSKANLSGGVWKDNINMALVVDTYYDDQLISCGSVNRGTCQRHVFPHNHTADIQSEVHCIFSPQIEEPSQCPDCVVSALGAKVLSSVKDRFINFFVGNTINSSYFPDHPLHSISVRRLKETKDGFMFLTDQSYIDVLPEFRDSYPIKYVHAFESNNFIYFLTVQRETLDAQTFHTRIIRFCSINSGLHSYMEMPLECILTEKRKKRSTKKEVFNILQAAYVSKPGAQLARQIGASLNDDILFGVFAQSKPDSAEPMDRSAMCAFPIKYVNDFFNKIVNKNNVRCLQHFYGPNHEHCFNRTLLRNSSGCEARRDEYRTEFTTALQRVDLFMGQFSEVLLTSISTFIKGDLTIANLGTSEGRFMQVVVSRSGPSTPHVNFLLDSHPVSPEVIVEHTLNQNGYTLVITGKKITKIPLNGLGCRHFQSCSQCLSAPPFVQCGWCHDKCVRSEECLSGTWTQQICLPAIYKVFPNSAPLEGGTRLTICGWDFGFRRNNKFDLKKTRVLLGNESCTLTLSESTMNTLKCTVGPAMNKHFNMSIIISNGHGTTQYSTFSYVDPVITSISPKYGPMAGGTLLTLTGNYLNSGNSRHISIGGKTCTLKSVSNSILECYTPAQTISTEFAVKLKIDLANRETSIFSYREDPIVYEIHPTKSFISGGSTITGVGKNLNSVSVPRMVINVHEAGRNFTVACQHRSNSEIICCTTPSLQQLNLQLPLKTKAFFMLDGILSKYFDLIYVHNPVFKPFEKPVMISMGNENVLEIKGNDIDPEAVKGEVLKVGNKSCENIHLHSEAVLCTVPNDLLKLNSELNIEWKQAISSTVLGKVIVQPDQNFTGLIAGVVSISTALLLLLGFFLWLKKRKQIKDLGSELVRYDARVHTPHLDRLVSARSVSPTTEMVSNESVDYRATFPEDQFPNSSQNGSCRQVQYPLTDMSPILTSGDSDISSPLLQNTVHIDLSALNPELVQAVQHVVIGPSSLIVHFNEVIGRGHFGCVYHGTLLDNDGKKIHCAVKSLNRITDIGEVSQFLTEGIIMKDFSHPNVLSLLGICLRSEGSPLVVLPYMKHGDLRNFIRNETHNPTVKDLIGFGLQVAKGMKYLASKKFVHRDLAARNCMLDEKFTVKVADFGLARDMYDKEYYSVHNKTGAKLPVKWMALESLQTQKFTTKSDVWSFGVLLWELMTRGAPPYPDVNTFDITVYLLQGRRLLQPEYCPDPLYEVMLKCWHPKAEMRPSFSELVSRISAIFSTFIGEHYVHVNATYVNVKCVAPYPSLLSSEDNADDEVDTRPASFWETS
T1 sequence (A0M8R7 25-1381 S170N/I621T limits assumed): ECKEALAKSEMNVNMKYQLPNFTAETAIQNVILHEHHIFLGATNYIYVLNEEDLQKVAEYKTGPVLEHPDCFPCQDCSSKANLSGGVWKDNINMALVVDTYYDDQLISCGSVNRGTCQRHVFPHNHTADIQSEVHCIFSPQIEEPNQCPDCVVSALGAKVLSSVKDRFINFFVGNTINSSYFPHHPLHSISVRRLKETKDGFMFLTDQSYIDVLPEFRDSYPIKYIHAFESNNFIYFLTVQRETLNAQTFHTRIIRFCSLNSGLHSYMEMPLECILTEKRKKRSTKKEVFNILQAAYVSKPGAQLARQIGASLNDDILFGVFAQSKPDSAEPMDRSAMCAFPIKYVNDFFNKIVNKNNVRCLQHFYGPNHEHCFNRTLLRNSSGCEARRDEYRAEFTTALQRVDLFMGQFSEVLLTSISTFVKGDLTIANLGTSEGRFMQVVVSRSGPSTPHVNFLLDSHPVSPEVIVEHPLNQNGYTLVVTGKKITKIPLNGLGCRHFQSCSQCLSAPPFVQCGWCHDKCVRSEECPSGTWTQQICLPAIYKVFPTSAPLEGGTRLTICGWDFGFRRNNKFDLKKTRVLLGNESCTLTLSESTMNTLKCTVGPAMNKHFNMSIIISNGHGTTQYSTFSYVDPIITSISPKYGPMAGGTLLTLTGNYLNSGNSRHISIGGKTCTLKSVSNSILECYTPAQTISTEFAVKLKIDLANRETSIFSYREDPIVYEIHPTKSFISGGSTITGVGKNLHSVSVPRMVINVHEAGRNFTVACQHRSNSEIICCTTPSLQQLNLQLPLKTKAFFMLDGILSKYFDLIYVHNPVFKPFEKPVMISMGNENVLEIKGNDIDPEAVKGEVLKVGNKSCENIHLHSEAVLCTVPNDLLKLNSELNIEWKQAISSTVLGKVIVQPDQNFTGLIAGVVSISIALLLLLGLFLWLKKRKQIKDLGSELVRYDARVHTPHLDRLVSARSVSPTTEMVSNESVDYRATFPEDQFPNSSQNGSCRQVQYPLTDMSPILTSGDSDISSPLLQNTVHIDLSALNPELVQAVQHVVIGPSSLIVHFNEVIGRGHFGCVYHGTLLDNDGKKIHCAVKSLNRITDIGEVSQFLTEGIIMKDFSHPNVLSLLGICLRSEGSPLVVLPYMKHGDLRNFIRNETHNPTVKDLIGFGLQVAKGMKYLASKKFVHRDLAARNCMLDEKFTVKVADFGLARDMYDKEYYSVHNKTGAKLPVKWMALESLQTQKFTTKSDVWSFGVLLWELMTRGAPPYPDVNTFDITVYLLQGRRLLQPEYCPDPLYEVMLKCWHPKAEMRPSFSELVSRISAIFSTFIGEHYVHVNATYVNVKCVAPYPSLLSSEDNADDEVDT

B1: 07C10 (antibody, IgG4, V domains shown)
VH: QVQLVQSGAEVKKPGASVKVSCKASGYIFTAYSMHWVRQAPGQGLEWMGIIKPSNGSTNYAQKFQGRVTMTRDTSTSTVYMELSSLRSEDTAVYYCARAEITTEFDYWGQGTLVTVSS
VL: EIVLTQSPGTLSLSPGERATLSCRASQSVESYAQSYLHWYQQKPGQAPRLLIYRGSTRESGIPDRFSGSGSGTDFTLTISRLEPEDFAVYYCQQSKEEPLTFGGGTKVEIK
As for B1, the “maximum MFI, fold over Isotype IgG4 background” value (“maximum MFI, fold” for short) in test [1] and in test [2] was above 10 fold each time. In addition, the Kd was 0.78 nM in test [3] and 3.2 nM in test [4]. Moreover, the koff in test [3] came to 9.4e-05 s⁻¹; in test [4], 0.00021 s⁻¹. Besides, the results for the kon in test [3] and in test [4] were 120000 M⁻¹ s⁻¹ and 65000 M⁻¹ s⁻¹, respectively. Moreover, the EC50 turned out to be 2.82 nM in test [5] and 9.59 nM in test [6].

B2: Grafted clone (Graft), IGHV1-46/IGKV3-20 CDR graft of 224G11 (antibody, human IgG4, V domains shown)
VH: QVQLVQSGAEVKKPGASVKVSCKASGYIFTAYTMHWVRQAPGQGLEWMGWIKPNNGLANYAQKFQGRVTMTRDTSTSTVYMELSSLRSEDTAVYYCARSEITTEFDYWGQGTLVTVSS
VL: EIVLTQSPGTLSLSPGERATLSCRASQSVDSYANSFLHWYQQKPGQAPRLLIYRASTRESGIPDRFSGSGSGTDFTLTISRLEPEDFAVYYCQQSKEDPLTFGGGTKVEIK
notes: also called VH graft/VL graft
Regarding B2, in test [1], the “maximum MFI, fold” value is above 10 fold. Besides, the “maximum MFI, fold” value in test [2] was above 10 fold. In addition, in test [3], binding was characterised by a dissociation constant (Kd) of 0.37 nM, the koff worked out at 3.7e-05 s⁻¹ and the kon was found to be 99000 M⁻¹ s⁻¹. In test [4], this molecule yielded a Kd of 0.22 nM, a koff of 5.2e-05 s⁻¹ and a kon of 230000 M⁻¹ s⁻¹.

B3: MH6 (antibody, IgG4, V domains shown)
VH: QVQLVQSGAEVKKPGASVKVSCKASGYTFTSYTMHWVRQAPGQGLEWMGWINPSGGSTSYAQKFQGRVTMTRDTSTSTVYMELSSLRSEDTAVYYCARQEITTEFDYWGQGTLVTVSS
VL: EIVLTQSPGTLSLSPGERATLSCRASQSVSSYAQSYLHWYQQKPGQAPRLLIYRGSTRETGIPDRFSGSGSGTDFTLTISRLEPEDFAVYYCQQYGSSPLTFGGGTKVEIK
Turning to B3, the “maximum MFI, fold” value in test [1] and in test [2] was above 10 fold each time. Also, the Kd in test [3] turned out to be 8.2 nM; in test [4] it was 4 nM. Also, the dissociation rate constant (koff) in test [3] turned out to be 0.00053 s⁻¹; in test [4], 0.00063 s⁻¹. The kon in test [3] came to 65000 M⁻¹ s⁻¹; in test [4], 160000 M⁻¹ s⁻¹. In addition, the EC50 in test [5] came out at 0.72 nM; in test [6] it was 1.33 nM.

B4: MH5 (antibody, IgG4, V domains shown)
VH: QVQLVQSGAEVKKPGASVKVSCKASGYTFTSYTMHWVRQAPGQGLEWMGWINPSGGSTSYAQKFQGRVTMTRDTSTSTVYMELSSLRSEDTAVYYCARQEITTEFDYWGQGTLVTVSS
VL: EIVLTQSPGTLSLSPGERATLSCRASQSVSSYAQSYLHWYQQKPGQAPRLLIYRGSTRETGIPDRFSGSGSGTDFTLTISRLEPEDFAVYYCQQSGSSPLTFGGGTKVEIK
B4: the “maximum MFI, fold” value in test [1] and in test [2] was above 10 fold throughout. In addition, the Kd in test [3] was determined as 2 nM; in test [4], 1.3 nM. Further, the koff came out at 0.00015 s⁻¹ in test [3] and 0.00021 s⁻¹ in test [4]. Also, the on-rate (kon) turned out to be 77000 M⁻¹ s⁻¹ in test [3] and 170000 M⁻¹ s⁻¹ in test [4]. Besides, the EC50 came out at 0.3 nM in test [5] and 1.76 nM in test [6].

B5: MH3 (antibody, IgG4, V domains shown)
VH: QVQLVQSGAEVKKPGASVKVSCKASGYTFTSYTMHWVRQAPGQGLEWMGWINPNGGSTSYAQKFQGRVTMTRDTSTSTVYMELSSLRSEDTAVYYCARQEITTEFDYWGQGTLVTVSS
VL: EIVLTQSPGTLSLSPGERATLSCRASQSVSSYAQSYLHWYQQKPGQAPRLLIYRGSTRETGIPDRFSGSGSGTDFTLTISRLEPEDFAVYYCQQYGSSPLTFGGGTKVEIK
notes: also called MH03
Turning to B5, the “maximum MFI, fold” value in test [1] and in test [2] was above 10 fold each time. The values for the dissociation constant Kd in test [3] and in test [4] were 7.6 nM and 4.1 nM, respectively. Moreover, the koff in test [3] turned out to be 0.00051 s⁻¹; in test [4], 0.00062 s⁻¹. Moreover, the kon was found to be 68000 M⁻¹ s⁻¹ in test [3] and 150000 M⁻¹ s⁻¹ in test [4]. Also, the EC50 in test [5] came out at 0.27 nM; in test [6], 1.66 nM.

B6: 08B12 (antibody, IgG4, V domains shown)
VH: QVQLVQSGAEVKKPGASVKVSCKASGYIFTAYSMHWVRQAPGQGLEWMGWIKPNNGSTNYAQKFQGRVTMTRDTSTSTVYMELSSLRSEDTAVYYCARTEITTEFDYWGQGTLVTVSS
VL: EIVLTQSPGTLSLSPGERATLSCRASQSVDSYANSYLHWYQQKPGQAPRLLIYRGSTRETGIPDRFSGSGSGTDFTLTISRLEPEDFAVYYCQQSKSDPLTFGGGTKVEIK
For the molecule B6, the “maximum MFI, fold” value in test [1] and in test [2] was above 10 fold in each case. Besides, the Kd in test [3] came to 8.4 nM; in test [4], 8.1 nM. Besides, the koff in test [3] stood at 0.00031 s⁻¹; in test [4], 0.00043 s⁻¹. Further, the kon in test [3] was 37000 M⁻¹ s⁻¹; in test [4] it was 54000 M⁻¹ s⁻¹. Besides, the EC50 in test [5] turned out to be 1.34 nM; in test [6], 11.7 nM.

B7: MH2 (antibody, IgG4, V domains shown)
VH: QVQLVQSGAEVKKPGASVKVSCKASGYTFTSYTMHWVRQAPGQGLEWMGWINPNGGSTSYAQKFQGRVTMTRDTSTSTVYMELSSLRSEDTAVYYCARQEITTEFDYWGQGTLVTVSS
VL: EIVLTQSPGTLSLSPGERATLSCRASQSVSSYAQSYLHWYQQKPGQAPRLLIYRGSTRETGIPDRFSGSGSGTDFTLTISRLEPEDFAVYYCQQSGSSPLTFGGGTKVEIK
B7: the “maximum MFI, fold” value in test [1] and in test [2] was above 10 fold throughout. Besides, the Kd was 2.5 nM in test [3] and 0.87 nM in test [4]. Also, the koff in test [3] is 0.00018 s⁻¹; in test [4] it was 0.00021 s⁻¹. Further, the kon in test [3] turned out to be 73000 M⁻¹ s⁻¹; in test [4], 240000 M⁻¹ s⁻¹. Moreover, the concentration giving a half-maximal response (EC50) was determined as 0.34 nM in test [5] and 1.59 nM in test [6].

B8: MH1 (antibody, IgG4, V domains shown)
VH: QVQLVQSGAEVKKPGASVKVSCKASGYTFTSYTMHWVRQAPGQGLEWMGWINPNGGSTSYAQKFQGRVTMTRDTSTSTVYMELSSLRSEDTAVYYCARQEITTEFDYWGQGTLVTVSS
VL: EIVLTQSPGTLSLSPGERATLSCRASQSVSSYANSYLHWYQQKPGQAPRLLIYRGSTRESGIPDRFSGSGSGTDFTLTISRLEPEDFAVYYCQQSKSEPLTFGGGTKVEIK
B8: the “maximum MFI, fold” value in test [1] and in test [2] was above 10 fold throughout. The results for the dissociation constant (Kd) in test [3] and in test [4] were 0.75 nM and 0.14 nM, respectively. In addition, the koff worked out at 7.11e-05 s⁻¹ in test [3] and 2.6e-05 s⁻¹ in test [4]. Also, the kon amounted to 94700 M⁻¹ s⁻¹ in test [3] and 180000 M⁻¹ s⁻¹ in test [4]. The concentration for a half-maximal effect (EC50) in test [5] was found to be 0.26 nM; in test [6] it was 2.02 nM.

B9: 09B08 (antibody, IgG4, V domains shown)
VH: QVQLVQSGAEVKKPGASVKVSCKASGYTFTSYTMHWVRQAPGQGLEWMGWINPNNGSTNYAQKFQGRVTMTRDTSTSTVYMELSSLRSEDTAVYYCARSEITTDFDYWGQGTLVTVSS
VL: EIVLTQSPGTLSLSPGERATLSCRASQSVSSYANSYLHWYQQKPGQAPRLLIYRGSTRESGIPDRFSGSGSGTDFTLTISRLEPEDFAVYYCQQSKSDPLTFGGGTKVEIK
As for B9, the “maximum MFI, fold” value in test [1] and in test [2] was above 10 fold in each case. The figures for the Kd in test [3] and in test [4] were 1.1 nM and 0.2 nM, respectively. In addition, the values for the koff in test [3] and in test [4] were 4.1e-05 s⁻¹ and 1.2e-05 s⁻¹, respectively. Further, the kon in test [3] worked out at 37000 M⁻¹ s⁻¹; in test [4] it was 60000 M⁻¹ s⁻¹. Also, the EC50 in test [5] was found to be 3.78 nM; in test [6], 9.3 nM.
